We go through 2 substances from paper PMC9138545, “Incorporation of Oxidized Phenylalanine Derivatives into Insulin Signaling Relevant Proteins May Link Oxidative Stress to Signaling Conditions Underlying Chronic Insulin Resistance” (Biomedicines, 2022).

The target of assay [1] is C-terminal SH2 domain of PI3K regulatory subunit 1 (UniProt P27986). In words: FP.
In assay [2] the target is N-terminal SH2 domain of PI3K regulatory subunit 1 (UniProt P27986). In words: FP.

pKd: −log10 of the molar value.

N-terminal SH2 domain of PI3K regulatory subunit 1, sequence (P27986 321-433): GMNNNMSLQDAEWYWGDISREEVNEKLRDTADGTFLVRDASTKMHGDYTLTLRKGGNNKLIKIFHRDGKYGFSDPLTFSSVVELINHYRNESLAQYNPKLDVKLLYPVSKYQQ
C-terminal SH2 domain of PI3K regulatory subunit 1, sequence (P27986 614-724): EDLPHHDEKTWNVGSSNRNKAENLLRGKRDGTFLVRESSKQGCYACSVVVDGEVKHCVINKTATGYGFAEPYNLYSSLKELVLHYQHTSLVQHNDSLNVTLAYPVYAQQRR

On to “phospho-ortho-Tyr IRS-1 peptide GRKGSGD(pY)MPMSPKV”, for which the pKd in assay [1] was less than 4.40; in assay [2] it was less than 3.82.

On to “phospho-meta-Tyr IRS-1 peptide GRKGSGD(pY)MPMSPKV”, for which the values for the pKd in assay [1] and in assay [2] were 5.19 and 4.27, respectively.

One may read the pKd as the negative decadic logarithm of the Kd, by convention in mol/L. A high value points to a low Kd.
